This note sets out measurements from patent publication US20110318339A1 (FABRUS, published 2011).

Experiment [1] deals with T1, rHuman HGF R/c-MET/Fc Chimera, CF (Cat# 358-MT/CF) (human, UniProt P08581 25-932).
T1 construct: Bought from R&D Systems; also called HGF R/Fc; hepatocyte growth factor receptor (HGF R/c-Met)
As to the kind of experiment: Multispot ECL; Fab 17.5 nM. Here is the method:
(§1) An 150 μl aliquot of 1% Bovine Serum Albumin (BSA) in Tris-buffered Saline Tween (TBST) was added to each well and allowed to incubate for 30 min at 20° C. followed by washing and tap drying to completely remove any residual solution. Subsequently, a 12.5 μl aliquot of 1% BSA TBST was added to each well followed by the addition of a 12.5 μl aliquot of a purified Fab. The plate was sealed and incubated for 1 hour at 20° C. with shaking.
(§2) Detection antibodies were prepared by individually conjugating both goat anti-human Kappa light chain polyclonal antibody (K3502-1MG, Sigma-Aldrich) and goat anti-human Lambda light chain polyclonal antibody (L1645-1 mL, Sigma-Aldrich) with Ruthenium (II) tris-bipyridine-(4-methylsulfone)-N-hydroxysuccinimide (SULFO-TAG NHS-ester, Meso Scale Discovery) according to the manufacturer's instructions. TAG-detection antibody at 25 μl was added to each well and allowed to incubate for 1 hour at 20° C. with shaking. Finally, 15 μl of Read Buffer P with Surfactant (Cat # R92PC-1, Meso Scale Discovery) was added to each well. The electrochemiluminescence was measured using a Sector Imager 2400 (Meso Scale Discovery). Data was analyzed by comparing the ECL signals for an antigen to the blank of each well. A signal to blank ratio of 4 or more was considered a “Hit” Fab. […]

The target in experiment [2] is T2, Recombinant Human DLL4 (Cat# 1506-D4/CF) (human, UniProt Q9NR61 27-529).
T2 construct: Bought from R&D Systems; also called rHuman DLL4; hDLL4
As to the kind of experiment: Multispot ECL; Fab 17.5 nM. Here is the method: as §1, §2

The target in experiment [3] is T1, rHuman HGF R/c-MET/Fc Chimera, CF (Cat# …). As to the kind of experiment: Multispot ECL; Fab 280 nM. Here is the method: as §1, §2
For experiment [4], the target named is T2, Recombinant Human DLL4 (Cat# 1506-D4/CF). As to the kind of experiment: Multispot ECL; Fab 280 nM. Here is the method:
as §1, §2

Experiment [5] concerns the target T1, rHuman HGF R/c-MET/Fc Chimera, CF (Cat# …). As to the kind of experiment: Multispot ECL; Fab 70 nM. Here is the method: as §1, §2
In experiment [6] the target is T2, Recombinant Human DLL4 (Cat# 1506-D4/CF). As to the kind of experiment: Multispot ECL; Fab 70 nM. Here is the method:
as §1, §2

Experiment [7] addresses T1, rHuman HGF R/c-MET/Fc Chimera, CF (Cat# …). As to the kind of experiment: Multispot ECL; Fab 4.375 nM. Here is the method:
as §1, §2

In experiment [8] the target is T2, Recombinant Human DLL4 (Cat# 1506-D4/CF). As to the kind of experiment: Multispot ECL; Fab 4.375 nM. Here is the method:
as §1, §2

B1: Fab VH1-46_IGHD2-15*01_IGHJ2*01 & L12_IGKJ1*01 (Fab, V domains shown)
VH: QVQLVQSGAEVKKPGASVKVSCKASGYTFTSYYMHWVRQAPGQGLEWMGIINPSGGSTSYAQKFQGRVTMTRDTSTSTVYMELSSLRSEDTAVYYCAREGYCSGGSCYSYWYFDLWGRGTLVTVSS
VL: not shown
notes: Germline-derived Fab from E. coli: VH in Plasmid A (CH1, His6 and Flag tags), VL in Plasmid C (kappa CL)
In the case of B1, the ECL signal in experiment [1] was 565; in experiment [2] it was 1220; in experiment [3] it was 3560; in experiment [4] it was 8110; in experiment [5], 1290; in experiment [6] it was 2750. For the same molecule, the ECL signal in experiment [7] turned out to be 193; in experiment [8], 558.
